Reference: paper PMC9508830

Target: GAr fused to the N-terminus of p53 (GAr-p53), nascent peptide on polysomes (Epstein-Barr virus | not stated)
Experiment: proximity ligation; PLEA (PLA ELISA): polysomes of cycloheximide-treated H1299 lysates captured on 96-well plates with goat anti-RPL5, increasing amounts of polysomes; in vitro PLA with anti-p53 (rabbit) and anti-NACA (mouse)

“nascent polypeptide-associated complex subunit alpha (NACA), endogenous in H1299 cells (from UniProt Q13765 1-215) (natural protein)” showed a fold interaction (PLEA signal) against p53 of 3 fold.
